From the nanobody polyreactivity screen of Harvey et al. (2022)

Experiment: yeast display, Sf9 membrane polyspecificity reagent, FACS + sequencing; frameworks hold sequencing errors
Outline: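 Nanobodies came from a synthetic yeast display library in Saccharomyces cerevisiae BJ5465, induced with galactose for 36–48 hours and stained for 1 hour at 4 °C with 10% biotinylated, detergent-solubilized Sf9 membrane reagent. Cells were enriched on streptavidin microbeads and then FACS-sorted, with low and high (top ~1%) gates set on anti-HA fluorescence for expression and streptavidin fluorescence for reagent binding. Each polyreactivity label reflects the gate a clone came from. Genes were amplified by colony PCR, sequenced by MiSeq 2 × 250 and filtered by CDR length.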

QVQLVESGGGLVQAGGSLSLSCAASGFIFRGNGMGWYRQAPGKERELVAAIDSTDSTNYADSVKGRFTISRDNAKNTVYLQMNSLKPEDTAVYYCAAGVSWYGPYDYLWFYAFDYWGQGTQVTVSS
polyreactivity (PSR sort gate): low polyreactivity

QVQLVESGGGLVQAGGSLSLSCAASGFIITRNAMGWYRQAPGKEWEFVARISRSSGSTYYADSVKGRFTISRDNAKITVYLKMKSLTPDDTAVYYCNTRVAGIYGFGSYDDWGQGTQVTVSS
polyreactivity (PSR sort gate): high polyreactivity

QVQLVESGGGLVQAGGSLSLSCAASGFTFFYNAMGWYRQAPGKERELVASITVSTSGTDYADSVKGRFTISLDNAKNTVYLQMNSLKPEDTAVYYCATDQVLVYSDLQDTAYYWGQGTQVTVSS
polyreactivity (PSR sort gate): low polyreactivity

QVQLVESGGGLVQAGGSLSLSCAASGFTFTRYVMGWYRQAPGKERELVAAISINGGRTYYADSVKGSFTNSRDNAKNTVYLQMNSLKPEDTAVYYWAAYKTYGSKYVFVDPGEYYYWGQGTQVTVSS
polyreactivity (PSR sort gate): high polyreactivity

QVQLVESGGGLVQAGGSLSLSCAASGITFVIYVMGWYRQAPGKERELVAAISWIGGSTYYADSVKGRFTISRDYAKNTVYLQMNSLKPEDTAVYYCATDYVVVVSTGYDYWGQGTQVTVSS
polyreactivity (PSR sort gate): low polyreactivity

QVQLVESGGGLVQAGGSLSLSCAASGITLYRYVMGWYRQAPWKERELVADNTGRGTSTYYADSVKGRFTISRDNAKNTVYFQLNSLKPEDTAVYYCNAEYTKTGALVIPYTYYYAEDYWGQATQVTVSS
polyreactivity (PSR sort gate): low polyreactivity

QVQLVESGGGLVQAGGSLSLSCAASGLTFDTNAMGWYRQAPGKERELVAAITDSGDSTYYADSVKGRFTISRDNEKNTVYLQMNSLKPEDTAVYYCAARRSNLAWGRRRMYYWGQGTQVTVSS
polyreactivity (PSR sort gate): high polyreactivity

QVQLVESGGGLVQAGGSLSLSCAASGNTFYGYAMGWYRQAPGKERELVASITLSGDSTYYADSVKGRFTISRDNAKNTVYLQMNSLKPEDTAVFDCAGVYTYPLGYYHYTYDYWGQGTQVTVSS
polyreactivity (PSR sort gate): low polyreactivity

QVQLVESGGGLVQAGGSLSLSCAASGRIFSNYAMGWYRQAPGKERELVADISSRGVSTYYADSVKGRFTISRDNAKNPGYLQMKSLKPEDTAVYYCAARGYQRQYYYWGQGTQVTVSS
polyreactivity (PSR sort gate): high polyreactivity

QVQLVESGGGLVQAGGSLSLSCAASGRTFIFYAMGWYRQAPGKERELVAAISSSGSGTYYADSVKGRFTISRDNAKNTVYLQMNSLKPEDTAVYYCAADVVNSRRRPKYGYWGQGTQVTVSS
polyreactivity (PSR sort gate): low polyreactivity

QVQLVESGGGLVQAGGSLSLSCAASGRTFVPYAMGWDRQAPGKERELVAAISRSGSSTYYADSVKGRFTISRDNAKNTVYLQMNSLKPEDTAVYYCAADPVYYYIGDFNYWGQGTQVTVSS
polyreactivity (PSR sort gate): high polyreactivity

QVQLVESGGGLVQAGGSLSLSCAASGRTFWVYAMGWYRQAPGKERELVAAIRRGGITNYADSVKGRFTNSRDNAKNTVYLQMNCLKPEDTALYYCDTDKYGYLTRYYYWGQGTQVTVSS
polyreactivity (PSR sort gate): low polyreactivity

QVQLVESGGGLVQAGGSLSLSCAASGRTFYVYAMGWYIQAPGKERELVATISRGGSTTYADSVKGLFTISRDNAKNTVYLQMNSLKPEDTAVYYCATELLGGRRTVAYFWGQGSQVTVSS
polyreactivity (PSR sort gate): low polyreactivity

QVQLVESGGGLVQAGGSLSLSCAASGRTFYYYAMGWYRQAPGKERELVAAITSRGTSTYYADSVKGRFTISRDNAKNTVYLQMNSLKPEDTAVYYCAAGFISYYGNCYDYWGQGTQVTVSS
polyreactivity (PSR sort gate): high polyreactivity

QVQLVESGGGLVQAGGSLSLSCAASGRTIIRNAMGWYRQAPGKERELVAAINSGGITNYADSVKGRFTISRDNAKNTVYLKMNSLKPEDTAVYYCNARGSYPPYRSYGYWGQGTQVTVSS
polyreactivity (PSR sort gate): low polyreactivity

QVQLVESGGGLVQAGGSLSLSCAASGRTLYQYAMGWSRQAPGKERELVAAITTSGGSTYYADSVKGRFTISRDNAKNTVYLQMNSLKPEDTAVYYCAAPYTGYRERGYYKSDYWGQGTQVTESS
polyreactivity (PSR sort gate): low polyreactivity

QVQLVESGGGLVQAGGSLSLSCAASGSIIPDYAMGWYRQAPGKERELVAAITWRDDSTYYADSVKGRFTISRDNAKNTVYLQMNSLKPEDTAVYYCNASALDPLYAKDDYWGQGTQVTVSS
polyreactivity (PSR sort gate): low polyreactivity

QVQLVESGGGLVQAGGSLSLSCAASGSILAVYTMGWYRQAPGTVRELVAAITVSSGRTYYADSVKGRFTISRDNAKNTVYLQMNSLKPEDTSVYYCAALYWRSKLRPYEYWGQGTQVTVSS
polyreactivity (PSR sort gate): high polyreactivity

QVQLVESGGGLVQAGGSLSLSCAASGSPFLYYTMGWYRQAPGKERELVATISRDGSTNYADSVKGRFTISRDNAKNSVYLQMNSLKPEDTAVYYCAAARDSIGYGQYDYWGQGTQVTVSS
polyreactivity (PSR sort gate): low polyreactivity

QVQLVESGGGLVQAGGSLSLSCAASGSTFDRNAMGWYRQAPGKERELVAGISFSGGSTYYADSVKGRFTISRDNAKNTVYLQMNSLKPEDTAVYYCAASTYQPGAVPFDYWGQGTQVTVSS
polyreactivity (PSR sort gate): low polyreactivity

QVQLVESGGGLVQAGGSLSLSCAASGSTFGRYVMGWDRQAPGTERELVAAISYSGGRSYYADSVKGRFTMSRDNAKNTVYLQMNSLKPEDTAVYYCNAYGIDTGDYWGQGTQVTVSS
polyreactivity (PSR sort gate): high polyreactivity

QVQLVESGGGLVQAGGSLSLSCAASGSTFVENAMGWYRPAPGKERELVAGISIGGITYYADSVKGRFTISRDNAKNTVYLQMNSLKPEDTAVYYCGKRHKRTRNKYYYWGQGTQVNVSS
polyreactivity (PSR sort gate): high polyreactivity
